Experimental data: patent publication US9845340B2, “Peptides that specifically bind HGF receptor (cMet) and uses thereof” (Dyax Corp., priority 2003, dated 2017)

Columns and labels:
[1] = biological target: T1, 3T3 cells that over-express human cMet (Homo sapiens, UniProt P08581); assay: Whole cell ELISA of peptide-displaying phage; assay type: cell-based; conditions: phage isolate; 3T3 cells expressing human cMet vs. non-expressing 3T3 cells
T1 construct: expressed in transfected cells; host or cells: 3T3 cells
T1 sequence (P08581 25-1390): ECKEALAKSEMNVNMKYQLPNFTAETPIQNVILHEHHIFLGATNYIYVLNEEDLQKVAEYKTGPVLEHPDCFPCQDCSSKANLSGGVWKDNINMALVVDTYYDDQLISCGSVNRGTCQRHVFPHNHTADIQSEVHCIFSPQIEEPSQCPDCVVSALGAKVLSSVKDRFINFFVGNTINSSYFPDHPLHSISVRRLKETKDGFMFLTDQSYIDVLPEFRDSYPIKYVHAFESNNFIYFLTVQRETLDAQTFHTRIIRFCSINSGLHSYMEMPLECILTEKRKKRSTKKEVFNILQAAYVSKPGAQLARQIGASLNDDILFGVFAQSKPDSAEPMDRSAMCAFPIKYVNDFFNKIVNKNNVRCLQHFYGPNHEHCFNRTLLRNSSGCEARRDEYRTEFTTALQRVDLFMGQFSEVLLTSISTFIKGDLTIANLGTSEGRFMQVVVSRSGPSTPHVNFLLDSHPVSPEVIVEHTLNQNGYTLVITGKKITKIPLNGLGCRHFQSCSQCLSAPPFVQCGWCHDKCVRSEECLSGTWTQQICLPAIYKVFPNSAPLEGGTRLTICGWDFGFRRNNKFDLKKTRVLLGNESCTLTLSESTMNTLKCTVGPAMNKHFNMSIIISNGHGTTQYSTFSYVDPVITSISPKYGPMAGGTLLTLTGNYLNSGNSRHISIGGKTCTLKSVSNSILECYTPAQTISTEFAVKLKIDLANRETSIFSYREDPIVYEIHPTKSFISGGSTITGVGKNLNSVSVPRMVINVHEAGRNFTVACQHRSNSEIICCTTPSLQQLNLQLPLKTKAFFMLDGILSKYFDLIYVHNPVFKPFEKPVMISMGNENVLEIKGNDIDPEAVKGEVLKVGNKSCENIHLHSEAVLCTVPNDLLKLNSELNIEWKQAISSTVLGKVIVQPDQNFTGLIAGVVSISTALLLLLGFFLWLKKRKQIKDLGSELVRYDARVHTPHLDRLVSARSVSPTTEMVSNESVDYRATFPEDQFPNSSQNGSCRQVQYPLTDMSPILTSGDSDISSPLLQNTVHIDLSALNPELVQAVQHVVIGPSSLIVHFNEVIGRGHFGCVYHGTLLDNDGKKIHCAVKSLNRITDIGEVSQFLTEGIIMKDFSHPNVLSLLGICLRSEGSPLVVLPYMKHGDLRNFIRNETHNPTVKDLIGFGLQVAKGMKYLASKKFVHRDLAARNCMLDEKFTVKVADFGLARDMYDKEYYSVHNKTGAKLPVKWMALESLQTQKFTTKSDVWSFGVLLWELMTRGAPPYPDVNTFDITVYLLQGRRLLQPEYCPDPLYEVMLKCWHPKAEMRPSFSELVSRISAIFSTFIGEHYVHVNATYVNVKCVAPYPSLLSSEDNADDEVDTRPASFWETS
Procedure: Whole cell ELISAs were performed using 3T3 cells that over-express human cMet. […] Briefly, 96-well plates were seeded with 10^5 cells per well. The plates were centrifuged for 5 minutes at 1600 rpm to pellet the cells. The resulting cell layer was fixed with 0.1% (v/v) glutaraldehyde for 12 minutes at 37 C. […] Peptide-displaying phage also were blocked in the above solution for 1 hour at 37 C. 100 μL of blocked phage was then added to each well and the plates were incubated for 1 hour at room temperature. The plates were washed with PBST. cMet-binding peptide-displaying phage were detected using an HRP-conjugated anti-M13 antibody.

cMet-Fc fusion protein = cMet-Fc fusion protein (Homo sapiens, UniProt P08581); assay: Protein phage ELISA: peptide-displaying phage binding to soluble cMet-Fc versus TRAIL-Fc; conditions: phage isolate; cMet-Fc vs. TRAIL-Fc
Chain of cMet-Fc fusion protein (P08581 25-307 limits assumed): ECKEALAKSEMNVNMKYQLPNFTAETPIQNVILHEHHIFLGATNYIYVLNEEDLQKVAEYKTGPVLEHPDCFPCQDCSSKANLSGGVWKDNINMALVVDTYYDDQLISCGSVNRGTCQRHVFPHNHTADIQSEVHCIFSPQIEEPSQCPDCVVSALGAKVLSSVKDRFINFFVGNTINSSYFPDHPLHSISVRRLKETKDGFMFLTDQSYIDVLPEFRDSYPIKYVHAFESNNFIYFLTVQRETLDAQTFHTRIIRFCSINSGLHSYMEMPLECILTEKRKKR
Chain of cMet-Fc fusion protein (P08581 with tags, fused parts or gaps limits assumed): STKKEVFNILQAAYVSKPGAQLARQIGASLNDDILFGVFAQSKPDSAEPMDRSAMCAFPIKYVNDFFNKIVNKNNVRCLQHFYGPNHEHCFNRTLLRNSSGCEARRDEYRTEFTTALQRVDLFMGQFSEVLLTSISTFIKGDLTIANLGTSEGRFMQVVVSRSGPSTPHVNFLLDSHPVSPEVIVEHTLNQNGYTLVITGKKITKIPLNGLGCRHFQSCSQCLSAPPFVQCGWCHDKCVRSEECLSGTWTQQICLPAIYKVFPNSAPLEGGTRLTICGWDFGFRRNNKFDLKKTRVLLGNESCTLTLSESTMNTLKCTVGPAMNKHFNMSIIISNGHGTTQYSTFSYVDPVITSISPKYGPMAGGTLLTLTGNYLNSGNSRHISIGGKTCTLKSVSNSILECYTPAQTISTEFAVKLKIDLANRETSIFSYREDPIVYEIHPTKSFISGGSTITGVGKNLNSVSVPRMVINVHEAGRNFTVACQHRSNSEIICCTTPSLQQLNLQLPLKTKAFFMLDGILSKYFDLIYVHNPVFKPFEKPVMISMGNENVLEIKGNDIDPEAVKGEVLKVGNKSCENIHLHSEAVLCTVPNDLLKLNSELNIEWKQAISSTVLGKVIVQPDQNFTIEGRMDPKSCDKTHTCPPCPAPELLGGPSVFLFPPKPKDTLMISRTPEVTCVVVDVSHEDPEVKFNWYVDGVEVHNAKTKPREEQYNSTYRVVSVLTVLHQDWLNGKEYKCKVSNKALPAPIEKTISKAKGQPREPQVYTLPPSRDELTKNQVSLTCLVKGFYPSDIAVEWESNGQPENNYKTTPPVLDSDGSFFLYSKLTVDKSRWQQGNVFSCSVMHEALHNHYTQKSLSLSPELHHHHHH
Procedure: Protein phage ELISAs using peptide-displaying phage isolates from the various selection campaigns were performed to determine specificity of the peptides for cMet versus an unrelated Fc-fusion protein (TRAIL-Fc). Briefly, 384-well plates were coated overnight at 4 C with 0.5 μg/mL of cMet-Fc fusion protein or TRAIL-Fc fusion protein (background). The plates were blocked for 2 hours 37C with 3% (w/v) BSA in PBS containing 0.05% (v/v) Tween-20 (PBST). The plates were washed with PBST and 100 μL of peptide-displaying phage were added to each well. The plates were incubated for 2 hours at room temperature and washed with PBST. cMet-binding peptide-displaying phage were detected using an HRP-conjugated anti-M13 antibody.

Row | WC ELISA [1] | Protein ELISA (cMet-Fc fusion protein) | Compound
1 | 1.37 fold over background | 3.9 fold over background | AGYYHCIDDFPQCKWMGT (Synthetically generated cMet-binding peptide sequence) [SEQ ID NO: 017]
2 | 1.23 fold over background | 16.2 fold over background | AGETFCSGWPTFECMQWGT (Synthetically generated cMet-binding peptide sequence) [SEQ ID NO: 095]
3 | 1.27 fold over background | 8.9 fold over background | AGNYWCSGPPSFICHAVGT (Synthetically generated cMet-binding peptide sequence) [SEQ ID NO: 091]
4 | 1.23 fold over background | 12.3 fold over background | AGMTLCAGPPTFECYEVGT (Synthetically generated cMet-binding peptide sequence) [SEQ ID NO: 092]
5 | 1.33 fold over background | 5.4 fold over background | CC(=O)N[C@@H](C)C(=O)NCC(=O)N[C@@H](Cc1c[nH]c2ccccc12)C(=O)N[C@@H](Cc1ccccc1)C(=O)N[C@@H](CCC(N)=O)C(=O)N[C@H]1CSSC[C@@H](C(=O)N[C@@H](CCC(=O)O)C(=O)N[C@@H](CCCNC(=N)N)C(=O)N[C@@H](Cc2c[nH]cn2)C(=O)NCC(=O)N[C@H](C(=O)NCC(=O)NCC(=O)NCC(=O)N[C@@H](CCCCNC(=O)c2ccc3c(c2)C(=O)OC32c3ccc(O)cc3Oc3cc(O)ccc32)C(N)=O)[C@@H](C)O)NC(=O)[C@H](CCC(=O)O)NC(=O)[C@H](Cc2ccccc2)NC(=O)[C@H](CO)NC(=O)[C@@H]2CCCN2C(=O)[C@@H]2CCCN2C(=O)CNC(=O)[C@H](CCCCN)NC1=O [SEQ ID NO: 051]
6 | 1.33 fold over background | 13.8 fold over background | AGYYGCKGPPTFECQWMGT (Synthetically generated cMet-binding peptide sequence) [SEQ ID NO: 049]
7 | 1.23 fold over background | 4.1 fold over background | AGGHWCLELKHLCPPYGT (Synthetically generated cMet-binding peptide sequence) [SEQ ID NO: 044]
8 | 1.27 fold over background | 16.1 fold over background | CC[C@H](C)[C@@H]1NC(=O)[C@H](Cc2ccc(O)cc2)NC(=O)[C@H]([C@@H](C)O)NC(=O)[C@H](CCC(=O)O)NC(=O)[C@H](CC(C)C)NC(=O)[C@H](CC(=O)O)NC(=O)[C@H](Cc2ccccc2)NC(=O)[C@H](CC(=O)O)NC(=O)[C@@H](NC(=O)[C@H](Cc2ccc(O)cc2)NC(=O)[C@H](CC(=O)O)NC(=O)[C@H](Cc2ccc(O)cc2)NC(=O)[C@H](CC(=O)O)NC(=O)CNC(C)=O)CSSC[C@@H](C(=O)N[C@@H](Cc2c[nH]cn2)C(=O)N[C@@H](CO)C(=O)N[C@@H](Cc2ccc(O)cc2)C(=O)N[C@@H](CC(=O)O)C(=O)N2CCC[C@H]2C(=O)NCC(=O)NCC(=O)NCC(=O)N[C@@H](CCCCNC(=O)c2ccc3c(c2)C(=O)OC32c3ccc(O)cc3Oc3cc(O)ccc32)C(N)=O)NC(=O)[C@H](CCC(=O)O)NC(=O)[C@@H]2CCCN2C1=O [SEQ ID NO: 390]
9 | 1.40 fold over background | 5.5 fold over background | AGYWHCKGPPHFACEFHGT (Synthetically generated cMet-binding peptide sequence) [SEQ ID NO: 077]
10 | 1.30 fold over background | 3.6 fold over background | AGTLSCSEEYKSCQLQGT (Synthetically generated cMet-binding peptide sequence) [SEQ ID NO: 027]
11 | 1.40 fold over background | 3.9 fold over background | AGNWICNLSEMRCYPKGT (Synthetically generated cMet-binding peptide sequence) [SEQ ID NO: 013]
12 | 1.23 fold over background | 3.6 fold over background | AQELFQILEKQMWSDFMEWATP (Synthetically generated cMet-binding peptide sequence) [SEQ ID NO: 474]
13 | 1.27 fold over background | 10.3 fold over background | AGETFCVGNPSFECWSWGT (Synthetically generated cMet-binding peptide sequence) [SEQ ID NO: 094]
14 | 1.23 fold over background | 12.4 fold over background | AGQFYCSGPPTFQCIMIGT (Synthetically generated cMet-binding peptide sequence) [SEQ ID NO: 089]
15 | 1.30 fold over background | 3.1 fold over background | AQHVVTLTLIQMPFAFNFEPRM (Synthetically generated cMet-binding peptide sequence) [SEQ ID NO: 484]
16 | 1.27 fold over background | 3.0 fold over background | AQMWHRVHDPGYTFEVTWLWDN (Synthetically generated cMet-binding peptide sequence) [SEQ ID NO: 488]
17 | 1.27 fold over background | 3.6 fold over background | AGLLGCWDMPMECTGEGT (Synthetically generated cMet-binding peptide sequence) [SEQ ID NO: 036]
18 | 1.40 fold over background | 3.6 fold over background | GSMNMCDTTDEISPTCHPSAP (Synthetically generated cMet-binding peptide sequence) [SEQ ID NO: 378]
19 | 1.23 fold over background | 6.4 fold over background | GSQNNCEYGSRGSSFCLAMAP (Synthetically generated cMet-binding peptide sequence) [SEQ ID NO: 377]
20 | 1.20 fold over background | 3.8 fold over background | AQAYEWWADESIFNHGYYWGHQ (Synthetically generated cMet-binding peptide sequence) [SEQ ID NO: 470]
21 | 1.23 fold over background | 11.1 fold over background | GDHLTCEFRDDGWKEHCWWSDP (Synthetically generated cMet-binding peptide sequence) [SEQ ID NO: 403]
22 | 1.27 fold over background | 18.1 fold over background | CC(=O)N[C@@H](C)C(=O)NCC(=O)N[C@@H](CO)C(=O)N[C@@H](Cc1ccccc1)C(=O)N[C@@H](C)C(=O)N[C@H]1CSSC[C@@H](C(=O)N[C@H](C(=O)N[C@@H](CCC(=O)O)C(=O)N[C@@H](Cc2ccccc2)C(=O)NCC(=O)N[C@H](C(=O)NCC(=O)NCC(=O)NCC(=O)N[C@@H](CCCCNC(=O)c2ccc3c(c2)C(=O)OC32c3ccc(O)cc3Oc3cc(O)ccc32)C(N)=O)[C@@H](C)O)C(C)C)NC(=O)[C@H](C)NC(=O)[C@H](Cc2ccccc2)NC(=O)[C@H]([C@@H](C)O)NC(=O)[C@@H]2CCCN2C(=O)[C@@H]2CCCN2C(=O)CNC(=O)[C@H](CCCCN)NC1=O [SEQ ID NO: 053]
23 | 1.37 fold over background | 3.1 fold over background | GSFWNCTTDLGAMSDCGFFAP (Synthetically generated cMet-binding peptide sequence) [SEQ ID NO: 383]
24 | 1.43 fold over background | 3.7 fold over background | GSAGWCYTMNYVDQLCTYMAP (Synthetically generated cMet-binding peptide sequence) [SEQ ID NO: 387]
25 | 1.30 fold over background | 8.0 fold over background | CC[C@H](C)[C@@H]1NC(=O)[C@@H](NC(=O)[C@H](Cc2c[nH]cn2)NC(=O)[C@@H](NC(=O)[C@H](Cc2c[nH]c3ccccc23)NC(=O)CNC(=O)[C@H](C)NC(C)=O)[C@@H](C)O)CSSC[C@@H](C(=O)N[C@H](C(=O)N2CCC[C@H]2C(=O)N[C@@H](CCSC)C(=O)NCC(=O)N[C@H](C(=O)NCC(=O)NCC(=O)NCC(=O)N[C@@H](CCCCNC(=O)c2ccc3c(c2)C(=O)OC32c3ccc(O)cc3Oc3cc(O)ccc32)C(N)=O)[C@@H](C)O)[C@@H](C)CC)NC(=O)[C@H](CCC(=O)O)NC(=O)[C@H](Cc2ccccc2)NC(=O)[C@H]([C@@H](C)O)NC(=O)[C@@H]2CCCN2C(=O)[C@@H]2CCCN2C(=O)CNC1=O [SEQ ID NO: 052]
26 | 1.33 fold over background | 5.7 fold over background | CC[C@H](C)[C@H](NC(=O)[C@H](C)NC(=O)[C@H](CCC(=O)O)NC(=O)[C@H](C)NC(=O)[C@@H](NC(=O)CNC(=O)[C@@H](NC(=O)[C@H](CCC(N)=O)NC(=O)[C@H](C)NC(C)=O)C(C)C)[C@@H](C)O)C(=O)N[C@@H](CCSC)C(=O)N[C@@H](Cc1ccccc1)C(=O)N[C@@H](CO)C(=O)N[C@@H](CC(=O)O)C(=O)N[C@H](C(=O)N[C@@H](CCC(=O)O)C(=O)N[C@@H](CC(=O)O)C(=O)N[C@H](C(=O)NCC(=O)N[C@H](C(=O)N[C@@H](Cc1c[nH]cn1)C(=O)N[C@@H](CCCCN)C(=O)N[C@@H](Cc1ccccc1)C(=O)NCC(=O)NCC(=O)NCC(=O)N[C@@H](CCCCNC(=O)c1ccc2c(c1)C(=O)OC21c2ccc(O)cc2Oc2cc(O)ccc21)C(N)=O)C(C)C)[C@@H](C)O)C(C)C [SEQ ID NO: 459]
